Measurements taken from article PMC13436963.

B1: Drosophila Notch LNR domain fused to split firefly luciferase fragments (LNR–NLuc and LNR–CLuc) [Drosophila melanogaster] / Drosophila Notch LNR domain fused to split firefly luciferase fragments (LNR–NLuc and LNR–CLuc) … (parent)
chain 1: GSGNDRYAADLEQQRAMCDKRGCTEKQGNGICDSDCNTYACNFDGNDCSLGINPWANCTANECWNKFKNGKCNEECNNAACHYDGHDCERKLKSCDSLFDAYCQKHYGDGFCDYGCNNAECSWDGLDCENKTQSPV
chain 2: B1 chain 1

Variants of: B1
Assay: split-luciferase complementation assay
Conditions: with Drosophila Notch LNR domain fused to split firefly luciferase fragments (LNR–NLuc and LNR–CLuc) [Drosophila melanogaster], S2 cells, n=5, parent: 1, read off a plot

ratio to parent (bar labelled 'F1563A + WT' (N-Luc / C-Luc))	ratio to parent (bar labelled 'WT + F1563A' (N-Luc / C-Luc))	ratio to parent (bar labelled 'H1570A + WT' (N-Luc / C-Luc))	ratio to parent (bar labelled 'WT + H1570A' (N-Luc / C-Luc))	Variant
0.97	1.1			chain 1 GSGNDRYAADLEQQRAMCDKRGCTEKQGNGICDSDCNTYACNFDGNDCSLGINPWANCTANECWNKFKNGKCNEECNNAACHYDGHDCERKLKSCDSLADAYCQKHYGDGFCDYGCNNAECSWDGLDCENKTQSPV
		1	0.94	chain 1 GSGNDRYAADLEQQRAMCDKRGCTEKQGNGICDSDCNTYACNFDGNDCSLGINPWANCTANECWNKFKNGKCNEECNNAACHYDGHDCERKLKSCDSLFDAYCQKAYGDGFCDYGCNNAECSWDGLDCENKTQSPV
